Read-outs that look alike come from different tables or passages of the source. Where no end group is shown, it is not given here.
Columns and labels:
[1] = target: T1, human Nav1.7 (Homo sapiens, UniProt Q15858); assay: NaV 1.7 current measurement on IonFlux HT; format: cell-based; settings: HEK293 cells overexpressing alpha and beta-1 subunits of human Nav1.7
T1 construct: host or cells: HEK293
Method: Toxin-550 peptides were assayed on the IonFlux HT using standard running conditions for measurement of NaV 1.7 current. Briefly, HEK293 cells overexpressing the alpha and beta-1 subunits of human Nav1.7 (PrecisION, Millipore) were trypsinized, brought up in serum-free media and allowed to shake at room temperature for 30 minutes. Compounds were diluted into standard extracellular Ringer's solution (ECS) at desired concentration. Cells were washed once with ECS and then brought up in ECS at a concentration of 4 million cells/mL. IonFlux HT plate was set up according to standard protocols.
NaV 1.7 current was measured on the IonFlux according to the following voltage step protocol:
1. The cells were held at −90 mV with a period of 10 seconds.
2. The cells were stepped from −90 mV to −120 mV for 100 ms. • a. then to −10 mV for 30 ms and • b. then back to −90 mV for 30 ms.
Baseline current was allowed to stabilize for 5 minutes, then a control baseline (ECS only) was established. Compound was applied for 20 minutes, and then a positive control (peptide NaV1.7 blocker) was applied.
Leak subtraction was then performed on the data and the resulting currents are analyzed as follows: • 1. […] For a given time (e.g. 10 minutes post-compound addition), percent block was calculated as I/Imax.

[2] = In vivo pharmacokinetic (PK) study for half-life extension; settings: mouse, plasma, mice
Method: Lipid conjugated relaxin or other therapeutic agents are dosed in mice using sc, po, iv dosing. Plasma levels of TA are determined by ms, lgr7, glp1r and/or gcgr activation at different time points (e.g., i.v. PK 5 min, 0.5 h, 1 h, 2 h 4 h, 8 h, 24 h, 48 h, 96 h & 144 h and s.c. PK. 15 min, 0.5 h, 1 h, 2 h, 4 h, 8 h, 24 h, 48 h, 96 h and 144 h). Select PK data are shown in FIGS. 11, 12, and 15, and Table 2.

[3] = target: T2, LGR7 (Homo sapiens, UniProt Q9HBX9); assay: LGR7 CRE-Luc reporter gene assay (relaxin bioactivity); format: cell-based; settings: HEK293T cells expressing LGR7 and CRE-Luc; EC50 after non-linear curve fitting
T2 construct: expressed in transfected cells
T2 sequence (Q9HBX9 1-757): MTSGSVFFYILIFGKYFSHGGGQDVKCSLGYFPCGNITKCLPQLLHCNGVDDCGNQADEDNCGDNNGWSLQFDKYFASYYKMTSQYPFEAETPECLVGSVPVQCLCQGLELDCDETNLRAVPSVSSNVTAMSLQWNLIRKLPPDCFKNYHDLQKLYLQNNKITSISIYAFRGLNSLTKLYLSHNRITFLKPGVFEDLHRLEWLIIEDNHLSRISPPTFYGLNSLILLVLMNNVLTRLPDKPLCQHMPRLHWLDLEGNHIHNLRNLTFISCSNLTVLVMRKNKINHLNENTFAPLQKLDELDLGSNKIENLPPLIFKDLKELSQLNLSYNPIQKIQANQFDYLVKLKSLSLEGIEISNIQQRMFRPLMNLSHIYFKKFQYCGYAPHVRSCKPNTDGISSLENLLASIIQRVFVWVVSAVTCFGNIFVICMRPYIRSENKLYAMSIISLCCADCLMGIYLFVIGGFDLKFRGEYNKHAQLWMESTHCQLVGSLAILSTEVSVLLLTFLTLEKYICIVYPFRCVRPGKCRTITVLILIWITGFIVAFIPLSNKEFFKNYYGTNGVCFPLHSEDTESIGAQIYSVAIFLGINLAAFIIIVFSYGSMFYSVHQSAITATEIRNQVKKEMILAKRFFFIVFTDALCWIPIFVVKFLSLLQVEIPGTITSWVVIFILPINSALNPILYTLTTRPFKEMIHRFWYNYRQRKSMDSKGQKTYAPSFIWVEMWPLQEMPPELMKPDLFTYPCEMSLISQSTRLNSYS
Method: Relaxin 2 signals through leucine-rich repeat-containing GPCRs (i.e. LGR7 (RFXR1)). The bioactivity of wild-type relaxin peptides was determined based on the stimulation of adenylate cyclase activity in HEK293T cells stably expressing recombinant LGR7. Stable LGR7 expressing cells were maintained in Dulbecco's modified Eagle's medium/F-12 media supplemented with […] Zeocin (Invitrogen). A cyclic AMP responsive element driven luciferase (CRE-Luc) reporter line was generated by lentiviral transduction of these LGR7 expressing HEK293T cells with CRE-Luc lentivirus (Qiagen) and selected with puromycine (2 μg/mL) for two weeks. A reporter gene assay was used to detect cAMP levels and LGR7 activation by relaxin.
Assay detail: HEK293T cells expressing LGR7 and CRE-Luc are seeded at a density of 5×10^3 cells per well in 50 μl of Dulbecco's modified Eagle's medium/F-12 medium containing 10% FBS in 384-well solid bottom white plates. Cells are pre-incubated at 37° C. for overnight. Different concentrations of relaxin peptides (from 0.01 nM to 1000 nM) were added in triplicate, incubated for 18 hours and luciferase activity was detected by adding […] of Bright Glo (Promega). Luminescence was recorded on Envision (Perkin Elmer). EC50 is calculated after non-linear curve fitting (see FIG. 3 for relaxin H2 dose response curve).

[4] = iv, i.v., read-out: Half-life (hours) i.v. (converted)
[5] = sc, s.c., read-out: Half-life (hours) s.c. (converted)

T1 sequence (Q15858 whole entry): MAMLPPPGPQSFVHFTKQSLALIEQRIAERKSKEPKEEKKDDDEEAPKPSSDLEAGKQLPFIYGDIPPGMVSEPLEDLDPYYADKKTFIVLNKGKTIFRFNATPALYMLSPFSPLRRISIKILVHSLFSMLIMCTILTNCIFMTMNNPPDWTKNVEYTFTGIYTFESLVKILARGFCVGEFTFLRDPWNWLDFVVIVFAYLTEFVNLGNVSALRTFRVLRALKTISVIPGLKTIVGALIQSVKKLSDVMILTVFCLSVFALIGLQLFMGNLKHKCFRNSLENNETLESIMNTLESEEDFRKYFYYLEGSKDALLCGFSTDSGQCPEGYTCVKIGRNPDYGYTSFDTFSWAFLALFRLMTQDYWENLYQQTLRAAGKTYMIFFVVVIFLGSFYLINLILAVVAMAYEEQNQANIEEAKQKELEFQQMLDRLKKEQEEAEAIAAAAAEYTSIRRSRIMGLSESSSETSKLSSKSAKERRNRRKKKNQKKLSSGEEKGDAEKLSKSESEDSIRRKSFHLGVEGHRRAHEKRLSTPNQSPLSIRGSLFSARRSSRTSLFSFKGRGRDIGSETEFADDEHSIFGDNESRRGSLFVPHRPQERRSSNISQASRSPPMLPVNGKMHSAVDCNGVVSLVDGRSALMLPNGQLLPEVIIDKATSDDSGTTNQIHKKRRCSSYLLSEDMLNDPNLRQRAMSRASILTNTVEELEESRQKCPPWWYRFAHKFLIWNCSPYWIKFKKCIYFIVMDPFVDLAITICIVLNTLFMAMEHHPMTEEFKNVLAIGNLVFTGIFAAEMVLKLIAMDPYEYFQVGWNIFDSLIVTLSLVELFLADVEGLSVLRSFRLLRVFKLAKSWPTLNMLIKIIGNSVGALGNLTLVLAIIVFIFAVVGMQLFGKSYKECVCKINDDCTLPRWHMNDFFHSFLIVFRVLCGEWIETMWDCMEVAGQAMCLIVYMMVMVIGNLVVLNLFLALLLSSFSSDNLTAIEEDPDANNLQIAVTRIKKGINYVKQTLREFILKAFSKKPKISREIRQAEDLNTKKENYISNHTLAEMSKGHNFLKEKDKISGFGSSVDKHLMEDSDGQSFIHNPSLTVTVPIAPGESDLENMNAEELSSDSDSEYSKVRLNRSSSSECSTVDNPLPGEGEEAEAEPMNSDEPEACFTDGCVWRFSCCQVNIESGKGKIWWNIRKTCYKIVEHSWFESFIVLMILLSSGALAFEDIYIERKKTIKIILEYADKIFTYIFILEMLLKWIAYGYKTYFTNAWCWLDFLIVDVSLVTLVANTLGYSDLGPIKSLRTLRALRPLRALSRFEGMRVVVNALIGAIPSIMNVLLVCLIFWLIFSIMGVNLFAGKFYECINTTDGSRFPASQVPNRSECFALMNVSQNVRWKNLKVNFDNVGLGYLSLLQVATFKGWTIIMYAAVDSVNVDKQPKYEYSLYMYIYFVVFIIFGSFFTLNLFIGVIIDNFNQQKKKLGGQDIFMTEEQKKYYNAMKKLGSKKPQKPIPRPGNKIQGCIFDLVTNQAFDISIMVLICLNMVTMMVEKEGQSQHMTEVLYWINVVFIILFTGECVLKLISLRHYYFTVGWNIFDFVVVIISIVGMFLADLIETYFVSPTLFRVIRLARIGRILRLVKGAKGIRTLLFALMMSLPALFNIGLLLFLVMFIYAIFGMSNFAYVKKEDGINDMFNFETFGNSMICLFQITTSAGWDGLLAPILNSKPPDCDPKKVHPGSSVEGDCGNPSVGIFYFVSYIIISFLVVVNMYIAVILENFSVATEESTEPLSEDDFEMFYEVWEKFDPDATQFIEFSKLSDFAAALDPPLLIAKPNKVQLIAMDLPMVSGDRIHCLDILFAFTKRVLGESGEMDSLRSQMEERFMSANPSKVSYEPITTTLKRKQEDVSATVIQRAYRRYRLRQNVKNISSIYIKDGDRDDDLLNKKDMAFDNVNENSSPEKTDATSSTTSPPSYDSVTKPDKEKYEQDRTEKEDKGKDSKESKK
T1 sequence (Q07699 19-218, further chain): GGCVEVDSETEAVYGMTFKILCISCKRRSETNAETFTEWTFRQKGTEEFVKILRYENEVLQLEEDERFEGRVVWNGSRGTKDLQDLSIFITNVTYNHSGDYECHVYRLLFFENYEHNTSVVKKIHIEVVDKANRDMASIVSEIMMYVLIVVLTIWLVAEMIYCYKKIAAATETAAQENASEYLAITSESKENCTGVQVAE

Compound	Activity: % block at 100 nM [1] [% block]	half-life [2, 4] [h]	half-life [2, 5] [h]	EC50 [3] [nM]
550-4-GSCGG-FA1: 550-4-GSCGG (SEQ ID NO: 28) with lipid FA1 (GSCGGECIGMFKSCDPENDKCCKGRTCSRKHRWCKYKL; cysteine pairing not given here; also: lipid FA1)	85			
550-: Toxin-550 peptide, probably SEQ ID NO: 30 (ECIGMFKSCDPENDKCCKGRTCSRKHRWCKYKL) [Entry 550-]	87			
CC[C@H](C)[C@@H]1NC(=O)[C@H](C)NC(=O)[C@H]([C@@H](C)CC)NC(=O)[C@H](CCC(N)=O)NC(=O)[C@H](C)NC(=O)[C@H](CCCNC(=N)N)NC(=O)[C@H](C(C)C)NC(=O)[C@H](CC(C)C)NC(=O)[C@H](CCC(=O)O)NC(=O)[C@H](CCCNC(=N)N)NC(=O)CNC(=O)[C@@H](NC(=O)[C@H](CC(C)C)NC(=O)[C@H](CCCCN)NC(=O)[C@@H](NC(=O)[C@@H](NC(=O)[C@H](CCC(=O)O)NC(=O)[C@H](CCC(=O)O)NC(=O)[C@H](CCSC)NC(=O)[C@H](Cc2c[nH]c3ccccc23)NC(=O)[C@H](CO)NC(=O)[C@H](C)N)C(C)C)[C@@H](C)CC)CSSC[C@@H]2NC(=O)[C@@H](NC(=O)[C@H](CCCCN)NC(=O)[C@H](CC(N)=O)NC(=O)[C@H](C)NC(=O)[C@H](CC(C)C)NC(=O)[C@H](C)NC(=O)[C@H](CO)NC(=O)[C@H](Cc3ccc(O)cc3)NC(=O)[C@H](CC(C)C)NC(=O)[C@@H](N)CSCC(=O)NCCOCCOCCC(=O)NCCOCCOCCC(=O)NCCCC[C@H](NC(=O)CCCCCCCCCCCCCCCCC(=O)O)C(=O)O)CSSC[C@H](NC(=O)CNC(=O)[C@H](C(C)C)NC(=O)[C@H](Cc3c[nH]cn3)NC2=O)C(=O)N[C@@H]([C@@H](C)O)C(=O)N[C@@H](CCCCN)C(=O)N[C@@H](CCCNC(=N)N)C(=O)N[C@@H](CO)C(=O)N[C@@H](CC(C)C)C(=O)N[C@@H](C)C(=O)N[C@@H](CCCNC(=N)N)C(=O)N[C@@H](Cc2ccccc2)C(=O)N[C@H](C(=O)O)CSSC[C@@H](C(=O)NCC(=O)N[C@@H](CCSC)C(=O)N[C@@H](CO)C(=O)N[C@H](C(=O)N[C@@H](Cc2c[nH]c3ccccc23)C(=O)N[C@@H](CO)C(=O)O)[C@@H](C)O)NC1=O [Relaxin-B-D1A, A-Q1C-FA2]		3.5	7.8	
CCCCCCCCCCCCCC(=O)NCCOCCOCCNC(=O)CSC[C@H](NC(=O)[C@H](Cc1c[nH]c2ccccc12)NC(=O)[C@@H](NC(=O)[C@H](CO)NC(=O)[C@H](CCSC)NC(=O)CNC(=O)[C@@H]1CSSC[C@@H](C(=O)O)NC(=O)[C@H](Cc2ccccc2)NC(=O)[C@H](CCCNC(=N)N)NC(=O)[C@H](C)NC(=O)[C@H](CC(C)C)NC(=O)[C@H](CO)NC(=O)[C@H](CCCNC(=N)N)NC(=O)[C@H](CCCCN)NC(=O)[C@H]([C@@H](C)O)NC(=O)[C@@H]2CSSC[C@H](NC(=O)[C@H](CCCCN)NC(=O)[C@H](CC(N)=O)NC(=O)[C@H](C)NC(=O)[C@H](CC(C)C)NC(=O)[C@H](C)NC(=O)[C@H](CO)NC(=O)[C@H](Cc3ccc(O)cc3)NC(=O)[C@H](CC(C)C)NC(=O)[C@@H](N)CCC(N)=O)C(=O)N[C@@H](CSSC[C@H](NC(=O)[C@H](CC(C)C)NC(=O)[C@H](CCCCN)NC(=O)[C@@H](NC(=O)[C@@H](NC(=O)[C@H](CCC(=O)O)NC(=O)[C@H](CCC(=O)O)NC(=O)[C@H](CCSC)NC(=O)[C@H](Cc3c[nH]c4ccccc34)NC(=O)[C@H](CO)NC(=O)[C@H](C)N)C(C)C)[C@@H](C)CC)C(=O)NCC(=O)N[C@@H](CCCNC(=N)N)C(=O)N[C@@H](CCC(=O)O)C(=O)N[C@@H](CC(C)C)C(=O)N[C@@H](C(C)C)C(=O)N[C@@H](CCCNC(=N)N)C(=O)N[C@@H](C)C(=O)N[C@@H](CCC(N)=O)C(=O)N[C@@H]([C@@H](C)CC)C(=O)N[C@@H](C)C(=O)N[C@@H]([C@@H](C)CC)C(=O)N1)C(=O)N[C@@H](Cc1c[nH]cn1)C(=O)N[C@@H](C(C)C)C(=O)NCC(=O)N2)[C@@H](C)O)C(=O)O [Relaxin-B-D1AS29C-FA1]		0.5	1.2	
CCCCCCCCCCCCCC(=O)NCCOCCOCCNC(=O)CSC[C@H](NC(=O)[C@H](Cc1c[nH]c2ccccc12)NC(=O)[C@@H](NC(=O)[C@H](CO)NC(=O)[C@H](CCSC)NC(=O)CNC(=O)[C@@H]1CSSC[C@@H](C(=O)O)NC(=O)[C@H](Cc2ccccc2)NC(=O)[C@H](CCCNC(=N)N)NC(=O)[C@H](C)NC(=O)[C@H](CC(C)C)NC(=O)[C@H](CO)NC(=O)[C@H](CCCNC(=N)N)NC(=O)[C@H](CCCCN)NC(=O)[C@H]([C@@H](C)O)NC(=O)[C@@H]2CSSC[C@H](NC(=O)[C@H](CCCCN)NC(=O)[C@H](CC(N)=O)NC(=O)[C@H](C)NC(=O)[C@H](CC(C)C)NC(=O)[C@H](C)NC(=O)[C@H](CO)NC(=O)[C@H](Cc3ccc(O)cc3)NC(=O)[C@H](CC(C)C)NC(=O)[C@@H](N)CCC(N)=O)C(=O)N[C@@H](CSSC[C@H](NC(=O)[C@H](CC(C)C)NC(=O)[C@H](CCCCN)NC(=O)[C@@H](NC(=O)[C@@H](NC(=O)[C@H](CCC(=O)O)NC(=O)[C@H](CCC(=O)O)NC(=O)[C@H](CCSC)NC(=O)[C@H](Cc3c[nH]c4ccccc34)NC(=O)[C@H](CO)NC(=O)[C@H](CC(=O)O)NC(=O)CNC(=O)CNC(=O)[C@H](CO)NC(=O)CNC(=O)[C@H](CCC(N)=O)NC(=O)[C@H](Cc3ccccc3)NC(=O)[C@H](Cc3ccc(O)cc3)NC(=O)[C@H](CC(C)C)NC(=O)[C@H](CC(N)=O)NC(=O)[C@H](CCC(=O)O)NC(=O)[C@H](Cc3c[nH]cn3)NC(=O)[C@H](Cc3c[nH]cn3)NC(=O)[C@H](Cc3c[nH]cn3)NC(=O)[C@H](Cc3c[nH]cn3)NC(=O)[C@H](Cc3c[nH]cn3)NC(=O)[C@H](Cc3c[nH]cn3)NC(=O)[C@H](Cc3c[nH]cn3)NC(=O)[C@@H](N)Cc3c[nH]cn3)C(C)C)[C@@H](C)CC)C(=O)NCC(=O)N[C@@H](CCCNC(=N)N)C(=O)N[C@@H](CCC(=O)O)C(=O)N[C@@H](CC(C)C)C(=O)N[C@@H](C(C)C)C(=O)N[C@@H](CCCNC(=N)N)C(=O)N[C@@H](C)C(=O)N[C@@H](CCC(N)=O)C(=O)N[C@@H]([C@@H](C)CC)C(=O)N[C@@H](C)C(=O)N[C@@H]([C@@H](C)CC)C(=O)N1)C(=O)N[C@@H](Cc1c[nH]cn1)C(=O)N[C@@H](C(C)C)C(=O)NCC(=O)N2)[C@@H](C)O)C(=O)O [Tev-Relaxin-B-S29C-FA1]				1
